Assay results published in US7132278.
Positions count from the first letter of the chain named.

T1: AMARA peptide, synthetic substrate NH2-AMARAASAAALARRR-CO2H
T1 chain: AMARAASAAALARRR

B1: human PASK S1287,89A, pre-phosphorylated (protein)
chain: MEDGGLTAFEEDQRCLSQSLPLPVSAEGPAAQTTAEPSRSFSSAHRHLSRRNGLSRLCQSRTALSEDRWSSYCLSSLAAQNICTSKLHCPAAPEHTDPSEPRGSVSCCSLLRGLSSGWSSPLLPAPVCNPNKAIFTVDAKTTEILVANDKACGLLGYSSQDLIGQKLTQFFLRSDSDVVEALSEEHMEADGHAAVVFGTVVDIISRSGEKIPVSVWMKRMRQERRLCCVVVLEPVERVSTWVAFQSDGTVTSCDSLFAHLHGYVSGEDVAGQHITDLIPSVQLPPSGQHIPKNLKIQRSVGRARDGTTFPLSLKLKSQPSSEEATTGEAAPVSGYRASVWVFCTISGLITLLPDGTIHGINHSFALTLFGYGKTELLGKNITFLIPGFYSYMDLAYNSSLQLPDLASCLDVGNESGCGERTLDPWQGQDPAEGGQDPRINVVLAGGHVVPRDEIRKLMESQDIFTGTQTELIAGGQLLSCLSPQPAPGVDNVPEGSLPVHGEQALPKDQQITALGREEPVAIESPGQDLLGESRSEPVDVKPFASCEDSEAPVPAEDGGSDAGMCGLCQKAQLERMGVSGPSGSDLWAGAAVAKPQAKGQLAGGSLLMHCPCYGSEWGLWWRSQDLAPSPSGMAGLSFGTPTLDEPWLGVENDREELQTCLIKEQLSQLSLAGALDVPHAELVPTECQAVTAPVSSCDLGGRDLCGGCTGSSSACYALATDLPGGLEAVEAQEVDVNSFSWNLKELFFSDQTDQTSSNCSCATSELRETPSSLAVGSDPDVGSLQEQGSCVLDDRELLLLTGTCVDLGQGRRFRESCVGHDPTEPLEVCLVSSEHYAASDRESPGHVPSTLDAGPEDTCPSAEEPRLNVQVTSTPVIVMRGAAGLQREIQEGAYSGSCHHRDGLRLSIQFEVRRVELQGPTPLFCCWLVKDLLHSQRDSAARTRLFLASLPGSTHSTAAELTGPSLVEVLRARPWFEEPPKAVELEGLAACEGEYSQKYSTMSPLGSGAFGFVWTAVDKEKNKEVVVKFIKKEKVLEDCWIEDPKLGKVTLEIAILSRVEHANIIKVLDIFENQGFFQLVMEKHGSGLDLFAFIDRHPRLDEPLASYIFRQLVSAVGYLRLKDIIHRDIKDENIVIAEDFTIKLIDFGSAAYLERGKLFYTFCGTIEYCAPEVLMGNPYRGPELEMWSLGVTLYTLVFEENPFCELEETVEAAIHPPYLVSKELMSLVSGLLQPVPERRTTLEKLVTDPWVTQPVNLADYTWEEVCRVNKPESGVLSAASLEMGNRALADVAQAQELCGGPVPGEAPNGQGCLHPGDPRLLTS
B2: human PASK S1273-1289A, pre-phosphorylated (protein)
chain: B1 chain with S1273A, S1277A, S1280A
B3: PASK ΔN, truncated variant of human PASK lacking both PAS domains (protein)
chain: SLPGSTHSTAAELTGPSLVEVLRARPWFEEPPKAVELEGLAACEGEYSQKYSTMSPLGSGAFGFVWTAVDKEKNKEVVVKFIKKEKVLEDCWIEDPKLGKVTLEIAILSRVEHANIIKVLDIFENQGFFQLVMEKHGSGLDLFAFIDRHPRLDEPLASYIFRQLVSAVGYLRLKDIIHRDIKDENIVIAEDFTIKLIDFGSAAYLERGKLFYTFCGTIEYCAPEVLMGNPYRGPELEMWSLGVTLYTLVFEENPFCELEETVEAAIHPPYLVSKELMSLVSGLLQPVPERRTTLEKLVTDPWVTQPVNLADYTWEEVCRVNKPESGVLSAASLEMGNRSLSDVAQAQELCGGPVPGEAPNGQGCLHPGDPRLLTS

Target: T1, AMARA peptide, synthetic substrate …

| Protein | Km (mM), pre-phosphorylated |
| --- | --- |
| B1 | 0.2 mM |
| B2 | 0.2 mM |
| B3 | 0.3 mM |
